Measured values from the DeepSol protein solubility set.

Experiment: soluble on expression in E. coli; label from the status in PepcDB or PDB records

Sequence | soluble on expression in E. coli
MGSDKIHHHHHHVKRRLNPLEAYLVVMSNADRAGGLVLAATPKMKQEHHIKTGSRMYELPTWDKRIIIAPPRMKLYLKVNAMIQAIFRRYVPAEFIHVYSIDECFLDITGSHLLFGSTEEIVRKIQRDILEELRLYVTVGIGDNPLLAKLALDNVAKNRDDGIAEWRYEDVPETIWKIRHLDDVCGIGRRTAIRLQKMGIFNMYQLSQTPPQVLKNAMGVVGEQLYYHAHGIDYSLLNEKYVPVSKSYGKSQILEKDYHIPAEVEIVIREMVEEVAMRLRQNHVDTEVIHLSIGYSKYSIKKGFSHQAKIPSTSSSHALIPYFLQLFRRYDEREPVRSIAISCGKLTLKTGLQLNLFEDATRTLNHEQLEVTVDKIRTRYGFKSLMHASSLLNGATGLKRSEMVGGHKG | not soluble
MGSDKIHHHHHHVLIGLSALSFSYRCGLIGRGTPRAVSHPLDIEGVMALASRAGLQSVEFPLSLLPDLSPGRLSALRERLTLCGLTPVADSDIVDVDTLRAHIPAAAMIGAHVLRVLISPVLEGYRRPFTTDWPAHLADVTDRLRAVIDLAAEHNIILAVENHQDATSADLAAICAAVDSPHIGVCFDAVNCLVVGETPYAALERLGPLIRNVHLADYETYPTTQGWRLVRCALGEGDLDIRRLFHLIEHYAPDVACQIELVSHSARHVRILDDDWWQGYPPCDVREVLPVLRLFAQTMRLRDDDWRTPWERGAGEEQISLYEDQQYATSIAYLRTIGILPRL | not soluble
MGSDKIHHHHHHVLKELNQLMDHIERHLTEELSGMDIVRITGVSEYHFRRMFSYMSGMTLNEYIRNRRLSQANINLVNQHSVTEVAYEYGYQSIEGFSRAFREWSGFLPSEVIKNKIQKSFPRFTFYIDIKGGVSMEFKIERKSQFHVVGVSKRVPIQFEGVNHSIVELAQSITPQQRQEMQQLADLYPETVLNVSFDFDEGYLEEQGSLTHMIGFATSRQNPYGDLEQITIEDSLWAVFPNTGPFPQMLQETMAKTYAEWLPTSGYELVDLPSILFTNHEDDSLNVYSEVWVPVKEKTTS | not soluble
MGSDKIHHHHHHVLVVVPEILDPKVDLVFKKVFGSQENKSILLSFLNAVLNWTGEQKIVDVKILNPYLEPESIDDSVGILDIKLQLENDDLVDVEMQIGNLGNMERRSTYYTCRMFGDQNISGGRYQDLNRVIAINVLDFTRIKNIERYHTKFRLRETQENIDLTDAIEIHFIELPKLRQEMASYTDPLDRWVVFLKGGWNMELLDRLAKEDPAIGQAKQVLEQMASNPRERELYELRRKAILDRNSALYEAKMEGKAEGKAEGQAIILLRLLKKKFGFMPVEMENRVMSMSAEKLQELAEAIFDLGTIDELNNFISR | not soluble
MGSDKIHHHHHHVNIQEQFLGSGSRGSYELHLVDRRPKDVLEQAEALPFWKQDYTQLDKGAFSGAVTSVSCQGIQIFREKMNRAVDQLASAPADTYVIGLPTMIEGEATWGMLPVKQDSLITLNKNTELLFRTSHCSEIAAAVISAQRLEEYAALVEWVDLREIMRKVKAVEQISSTIANRLMTSLVGGTRYISDVHESASVKHMWPNFEEDLMSTCLQALVQAKDSINHHYDHRIHRYIVNRVRDFTLLNSCCPLTISELCIELRVSRRTLNHAFLRVLGITPVAYMRNVRLHRVRAELQSAPDSVTSIANVATKWGFWHMSLFSRYYRELFGECPNKTLERTRLHKA | not soluble
MGSDKIHHHHHHVSEALLEQAVSDVMPTKLAIIMRGLPGSGKSYWVEQFITSQGIEQAIHIRQHGLFSTDRYFYQQGQYRFNPQKIGQYHQANLTAFIQALARKEPIVICDNTNIAKWEFMAYEAAAKALGYQVKVVLVGQPDNDQHQQLCAQRNQHQVSLAHIQKMAQLFEE | not soluble
MGSDKIHHHHHHWARTVWPRLYWFVEGKLYRWLQSFIAYWGYTAGYDVYEYGDDVTTYYRDERVLMMCNHQSTADVPTLMTVLQNKGVASRKTLWLMDVMFRWTPFGIIGNNHGDYFIQQGKATRDKELIRLKKHLHDVFWDRDRRWVILFPEGGFYYKRVESSQSYGKKNGFPHLLYTTLPRMGAVQAILEEVGPRTEDSDEPRERSNSKLKLLQDTVGAIREKKYVKGE | not soluble
MGSDKIHHHHHHYATVEPLHINRFDKDLFRLIDTGDTTLQPELIKQYPEMLDIIGKGILNLQTIETPGFFEKMRNYYSEPTLKGLYRDAITQYDSVEDIEKSLGYGFAYLKENFPSMQIPAIYMHVSGFNQNVLVGDSLLSLSIDKYMGKDYPLYQDFFYDSQKLKMQRGLVVPDYLAGWLMSEYPFAGKENVLLDRMIYEGKIKYLLSQALGVPDAAELMGYTEQAYNWCKDNEGTIWKAIIERKHLYTPDQLTTSQYFEDTPTIFPGNDAPGNIGTWIGWQIINQYIKETGSTPEALMQNNDAQEILTASKYKPL | not soluble
MGSFQAVAPTRLYRMIADQIAGRIRAGDFPAGGRLPAERELAEQLQVSRASVREALIALEIEGYVEVRVGTGVFVAAPRADGDYGVAPAPQPGHTDIGPFDLLDTRLLLEPECASLAAQKASPAQIAAISSAHAAMSLSDSPGAHDQAFHGAIAAACGNAALAAAISHIWHLSATSPVFSRLEQHFVTTKVWEAAEREHERILAAIVDRDPIRARHAMHDHLVGILARLREDFGSGAIR | not soluble
MGSRENLYFQGLEHHHHHHHMKIISKMLVGALALAVTNVYAAELMTKAEFEKVESQYEKIGDISTSNEMSTADAKEDLIKKADEKGADVLVLTSGQTDNKIHGTANIYKKK | soluble
MGSSEVSIIPGLQKEEKAAVERRRLHVLKALKKLRIEADEAPVVAVLGSGGGLRAHIACLGVLSEMKEQGLLDAVTYLAGVSGSTWAISSLYTNDGDMEALEADLKHRFTRQEWDLAKSLQKTIQAARSENYSLTDFWAYMVISKQTRELPESHLSNMKKPVEEGTLPYPIFAAIDNDLQPSWQEARAPETWFEFTPHHAGFSALGAFVSITHFGSKFKKGRLVRTHPERDLTFLRGLWGSALGNTEVIREYIFDQLRNLTLKGLWRRAVANAKSIGHLIFARLLRLQESSQGEHPPPEDEGGEPEHTWLTEMLENWTRTSLEKQEQPHEDPERKGSLSNLMDFVKKTGICASKWEWGTTHNFLYKHGGIRDKIMSSRKHLHLVDAGLAINTPFPLVLPPTREVHLILSFDFSAGDPFETIRATTDYCRRHKIPFPQVEEAELDLWSKAPASCYILKGETGPVVMHFPLFNIDACGGDIEAWSDTYDTFKLADTYTLDVVVLLLALAKKNVRENKKKILRELMNVAGLYYPKDSARSCCLA | soluble
MGSSHHHHHHGGTGENLYFQGGSGATAQNANPECVGPESPQAGIAPSCQGCPNAAICASAPKGPDPDIPLIRERLAGVKHKVMVVSGKGGVGKSTMTKELAFALGARGLSVGLMDMDICGPSLPRLTGVRGEDAHQSAGGIEPVLVDENVTMMSMHYLLSDKNEAVLFRGPRKNGVIKMFLKDVIWGNLDVLLIDTPPGTSDEHITVNSLLQQTTNGVDGAVLITTPQRVAEADVRREVNFCQKAKLPILGLVENMSGFVCPGCHKESQIFPKEEGGEGRKEGAGVRLSREFDVPLWGEVPLDPQLMKACEEGISFSEYVEKSGMTSSTTLDALFTVADQLIASLGIQVE | not soluble
MGSSHHHHHHGGTGENLYFQGGSGLRQFIVPVRQTTQRAGLATPPLFGVQKCYVNMNRSVQTRWEIDSQTASQKRTEYDFDKEQWMKQMRFASMDCIMDPDITPIRYTSVAGVKKAFRRFVTMRKLMDRRPDFDPVQLKELFIHFKTLSHEKSPDCFKTLQRITTHGEADRILKEIKGRMNEDFAKKSWRSLKQQGAKSTYEMEVDSFDLVTCYMGQMSQEDWLQITYRCEFRQRESKEYDWETMMEYPVFEVRLGDGVKAPNTHPFIVVGVLKKDGTRYGKDSQDAADLRKQFDRTGRWF | not soluble
MGSSHHHHHHGKTIFVIVPTNEEQVAFLEALAKQDELNFDWQNPPTEPGQPVVILIPSDMVEWFLEMLKAKGIPFTVYVEEGGSENLYFQGGGGGGLQLKSHQRLAEKPRRDAFVPRAYTVEELAQFDGKKKPQVFVGVKGIIYNVSLEWYGPEGPYSAFAGCDSSRQLGKVIVGRDEINADWTTLAPEHLKTLHEWEERFHSKYPAVGWITDPNKNFVKRAASLSP | not soluble
MGSSHHHHHHGKTIFVIVPTNEEQVAFLEALAKQDELNFDWQNPPTEPGQPVVILIPSDMVEWFLEMLKAKGIPFTVYVEEGGSENLYFQGGGGGGPFRYQISEYFERQRDGVHVELRRKAVKYYAEMERMHRRQALVNLESIQDDNAPHRLSAVLSVESIQAGHLDQEYNYWYAHERDAIRAEKLMMEIRELKAKMPADSA | not soluble
MGSSHHHHHHSSGLVPRGSDYMFKLLLIGNSSVGKTSFLFRYADDSFTPAFVSTVGIDFKVKTVYRHDKRIKLQIWDTAGQERYRTITTAYYRGAMGFLLMYDIANQESFAAVQDWATQIKTYSWDNAQVILVGNKCDLEDERVVPAEDGRRLADDLGFEFFEASAKENINVKQVFERLVDVICEKMNE | soluble
MGSSHHHHHHSSGLVPRGSHMAPTEIKPEDDILGRARVRDTPELEAYYDDLAKIETGALWTVANDIEPWEPTPKSAPVHWKWSDLRREVLRAIDLVRPEDAGRRVVYLRNPQRKDVSAACGWLFSGIQTMKAGERAGAHRHAASALRFIMEGSGAYTIVDGHKVELGANDFVLTPNGTWHEHGILESGTECIWQDGLDIPLTNCLEANFYEVHPNDYQTTDIPLNDSPLTYGGPALLPQLDKWDKPYSPLLKYSWEPTYEALLNYAKASDGSPYDGLILRYTNPQTGGHPMLTMGASMQMLRPGEHTKAHRHTGNVIYNVAKGQGYSIVGGKRFDWSEHDIFCVPAWTWHEHCNTQERDDACLFSFNDFPVMEKLGFWAEQALEDNGGHQIVAD | soluble
MGSSHHHHHHSSGLVPRGSHMASMTGGQQGRDPFESYNPEFFLYDIFLKFCLKYIDGEICHDLFLLLGKYNILPYDTSNDSIYACTNIKHLDFINPFGVAAGFDKNGVCIDSILKLGFSFIEIGTITPRGQTGNAKPRIFRDVESRSIINSCGFNNMGCDKVTENLILFRKRQEEDKLLSKHIVGVSIGKNKDTVNIVDDLKYCINKIGRYADYIAINVSSPNTPGLRDNQEAGKLKNIILSVKEEIDNLEKNNIMNDEFLWFNTTKKKPLVFVKLAPDLNQEQKKEIADVLLETNIDGMIISNTTTQINDIKSFENKKGGVSGAKLKDISTKFICEMYNYTNKQIPIIASGGIFSGLDALEKIEAGASVCQLYSCLVFNGMKSAVQIKRELNHLLYQRGYYNLKEAIGRKHSKS | soluble
MGSSHHHHHHSSGLVPRGSHMGVKSLVPQELIEKIKLISPGTELRKALDDIINANFGALIFLVDDPKKYEDVIQGGFWLDTDFSAEKLYELSKMDGAIVLSEDITKIYYANVHLVPDPTIPTGETGTRHRTAERLAKQTGKVVIAVSRRRNIISLYYKNYKYVVNQVDFLISKVTQAISTLEKYKDNFNKLLSELEVLELENRVTLADVVRTLAKGFELLRIVEEIRPYIVELGEEGRLARMQLRELTEDVDDLLVLLIMDYSSEEVEEETAQNILQDFITRREPSPISISRVLGYDVQQAAQLDDVLVSARGYRLLKTVARIPLSIGYNVVRMFKTLDQISKASVEDLKKVEGIGEKRARAISESISSLKHRKTSE | soluble
MGSSHHHHHHSSGLVPRGSHMKARELDVPGAWEITPTIHVDSRGLFFEWLTDHGFRAFAGHSLDVRQVNCSVSSAGVLRGLHFAQLPPSQAKYVTCVSGSVFDVVVDIREGSPTFGRWDSVLLDDQDRRTIYVSEGLAHGFLALQDNSTVMYLCSAEYNPQREHTICATDPTLAVDWPLVDGAAPSLSDRDAAAPSFEDVRASGLLPRWEQTQRFIGEMRGTGSV | soluble
